According to paper PMC8584237, “Helicobacter pylori Neutrophil-Activating Protein Directly Interacts with and Activates Toll-like Receptor 2 to Induce the Secretion of Interleukin-8 from Neutrophils and ATRA-Induced Differentiated HL-60 Cells” (International Journal of Molecular Sciences, 2021):

Target: T1, Recombinant human TLR2 protein Glu21-Leu590, with a C-terminal 10-His tag (human, UniProt O60603 21-590)
T1 construct: Human Toll-like receptor 2, residues Glu21-Leu590; In the functional rows the TLR2 is the endogenous receptor on neutrophils or ATRA-differentiated HL-60 cells, not this soluble construct; also called TLR2-10xHis; Toll-like receptor 2; source: bought: R&D Systems (Cat. # 2616-TR-050); not shown: His10, C-terminal, kept
T1 sequence (O60603 21-590): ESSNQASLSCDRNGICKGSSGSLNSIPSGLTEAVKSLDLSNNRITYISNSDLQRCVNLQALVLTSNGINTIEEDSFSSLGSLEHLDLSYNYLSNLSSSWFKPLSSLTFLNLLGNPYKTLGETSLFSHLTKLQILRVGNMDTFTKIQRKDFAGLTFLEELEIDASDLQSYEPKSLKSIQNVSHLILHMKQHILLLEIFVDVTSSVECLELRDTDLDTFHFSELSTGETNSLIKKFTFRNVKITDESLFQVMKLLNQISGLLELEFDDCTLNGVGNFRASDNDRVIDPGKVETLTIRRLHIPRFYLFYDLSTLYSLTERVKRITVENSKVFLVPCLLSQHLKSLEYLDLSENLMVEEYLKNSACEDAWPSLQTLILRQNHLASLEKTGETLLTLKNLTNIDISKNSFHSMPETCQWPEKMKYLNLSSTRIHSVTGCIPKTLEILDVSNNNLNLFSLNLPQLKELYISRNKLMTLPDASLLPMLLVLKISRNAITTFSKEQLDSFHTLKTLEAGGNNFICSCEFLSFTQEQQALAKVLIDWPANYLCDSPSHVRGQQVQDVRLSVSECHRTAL
Assay: ELISA; Competitive ELISA: 0.625 μg TLR2-10xHis in 100 µL PBS-T pre-incubated with 0.78125-50 μg Pam3CSK4 or BSA (control), then added to wells coated with 0.05 µg HP-NAP, room temperature 2 h; detected with anti-6x His tag antibody
Conditions: both partners purified

B1: Helicobacter pylori neutrophil-activating protein (natural protein)
chain: MKTFEILKHLQADAIVLFMKVHNFHWNVKGTDFFNVHKATEEIYEEFADMFDDLAERIVQLGHHPLVTLSEAIKLTRVKEETKTSFHSKDIFKEILEDYKYLEKEFKELSNTAEKEGDKVTVTYADDQLAKLQKSIWMLQAHLA
notes: also called HP-NAP; NAP; source: E. coli BL21(DE3) carrying pET42a-NAP, purified (two gel-filtration steps: Sephacryl S-300, Superdex 200; endotoxin removed); copies: 12
B1: binds.
